Patent US20210380691A1 (published 2021)
Changes are numbered by the printed parent chain.

T1: human NKp30 (human, UniProt O14931 19-135)
T1 chain: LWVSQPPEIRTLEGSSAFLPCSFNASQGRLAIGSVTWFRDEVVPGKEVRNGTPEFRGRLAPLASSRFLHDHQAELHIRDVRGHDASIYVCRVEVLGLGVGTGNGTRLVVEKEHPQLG

T2: cynomolgus NKp30 (cynomolgus, UniProt P61483 19-135)
T2 chain: T1 chain with V43A, A63S, H69R, R78W, S86G, H113Y

B1: hamster anti-NKp30 antibody 9D9 (antibody, V domains shown)
VH: QIQLQESGPGLVKPSQSLSLSCSVTGFSINTGGYHWNWIRQFPGKKVEWMGYIYSSGTTKYNPSLKSRISITRDTSKNQFFLQLNSVTTEDTATYYCARGDWHYFDYWGQGTMVAVSS
VL: SYTLTQPPLVSVALGQKATIICSGENLSDKYVHWYQQKPGRAPVMVIYENDKRPSGIPDQFSGSNSGNIATLTISKAQAGYEADYYCHCWDSTNSAVFGSGTHLTVL
B2: 9D9-1C1 (antibody, V domains shown)
VH: B1 VH
VL: B1 VL

Legend:
Experiment in all cases: ELISA (A450)
human NKp30 = target: T1, human NKp30
cynomolgus NKp30 = target: T2, cynomolgus NKp30
Rat NKp30 = target: Rat NKp30

Row | Binder | IC50 (human NKp30) | IC50 (cynomolgus NKp30) | IC50 (Rat NKp30)
1 | B1 | 890 pM | 890 pM | 
2 | B2 |  |  | 320 pM
